The target of experiment [1] is guanyl-nucleotide binding protein Ras (21 kDa). The experiment in a line: fluorescence polarization, 1 nM labeled peptide, 4 µM Ras; background without protein 46±7.
For experiment [2], the target named is E. coli DnaK (E. coli), A1A766.
For experiment [3], the target named is T1, GrpE, P09372.
T1 chain: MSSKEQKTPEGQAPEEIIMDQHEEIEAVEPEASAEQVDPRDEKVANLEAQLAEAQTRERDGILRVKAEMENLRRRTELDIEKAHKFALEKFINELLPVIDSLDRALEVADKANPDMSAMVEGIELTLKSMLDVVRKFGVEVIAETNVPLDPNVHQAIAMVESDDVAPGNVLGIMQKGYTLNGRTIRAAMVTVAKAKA

Experiment [4] deals with E. coli DnaK (E. coli), A1A766. The source holds these as a separate data set.
In experiment [5] the target is T2, GroES, P0A6F9.
T2 chain: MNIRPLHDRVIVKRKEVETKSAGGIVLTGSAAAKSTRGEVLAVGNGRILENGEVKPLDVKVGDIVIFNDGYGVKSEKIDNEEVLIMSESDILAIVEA

Experiment [6] has as its target GroEL (E. coli), P0A6F5.
Experiment [7] concerns the target E. coli DnaK aa588-615 (E. coli).
For experiment [8], the target named is E. coli DnaK aa583-615 (hinge region between C-terminal helices D and E) (E. coli).
The target of experiment [9] is Hsp60 (the human equivalent of GroEL) (human), P10809. The experiment is described as follows: fluorescence polarization, 1 nM labeled peptide, 2 µM protein; blank about 62. For orientation: In fluorescence polarisation assays a small probe gives low polarisation when free and higher when bound to something large.
Experiment [10] shares this target. The experiment is described as follows: fluorescence polarization, 1 nM labeled peptide, 4 µM protein; blank about 62.
Experiment [11] concerns the target E. coli DnaK (E. coli), A1A766. This is another data set of the same source.
The target in experiment [12] is GroEL (E. coli), P0A6F5. The source holds these as a separate data set.
Experiment [13] concerns the target E. coli DnaK (E. coli), A1A766. The experiment is described as follows: cell-based or functional assay.

“And” between values parts separate entries of the source, which are not always exact repeats. Equal values may be shown once.

Chain of Hsp60 (the human equivalent of GroEL) (human), P10809 (P10809 27-573 limits assumed): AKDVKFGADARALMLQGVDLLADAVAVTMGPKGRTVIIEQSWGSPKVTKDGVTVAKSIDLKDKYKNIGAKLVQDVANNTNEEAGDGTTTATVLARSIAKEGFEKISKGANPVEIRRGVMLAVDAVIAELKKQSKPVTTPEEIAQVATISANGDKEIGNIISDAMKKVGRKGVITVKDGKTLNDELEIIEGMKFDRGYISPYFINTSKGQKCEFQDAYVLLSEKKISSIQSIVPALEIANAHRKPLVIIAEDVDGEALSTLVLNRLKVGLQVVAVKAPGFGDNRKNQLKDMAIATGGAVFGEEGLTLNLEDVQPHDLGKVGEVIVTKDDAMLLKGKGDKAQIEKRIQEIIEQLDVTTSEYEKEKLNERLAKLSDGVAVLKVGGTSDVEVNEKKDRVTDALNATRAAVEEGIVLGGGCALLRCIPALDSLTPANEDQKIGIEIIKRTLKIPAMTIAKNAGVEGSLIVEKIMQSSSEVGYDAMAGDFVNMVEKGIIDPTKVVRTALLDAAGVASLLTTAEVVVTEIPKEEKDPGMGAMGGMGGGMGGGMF

The Kd is the free concentration of one partner at which half of the binding sites on the other are occupied at equilibrium, for simple one-to-one binding. Low values mean a tighter complex, high ones a looser complex. For the molecule KVDKGSYLPRPTPPRPIYNRN (modifications not checked) [fluorescein-K-pyrrhocoricin], the millipolarization units (millipolarization units) in [1] was 52. In addition, the Kd in experiment [2] came out at 1.1 µM; in experiment [7], 93 µM; in [8], 50.8 µM. In experiment [2], this molecule displayed a millipolarization over the background of 50%. Also, the minipolarization value (millipolarization) is below 62 in experiment [3]; 100 and 95 in [4]; below 62 in experiment [5]; > 100 and 85 in experiment [6]; 62 in experiment [9]; 90 in experiment [10]. Further, the Millipolarization (no competing peptide) (millipolarization) in experiment [11] is 126; in [12], 70.
Turning to VDKGSYLPRPTPPRPIYNRN (modifications not checked) [pyrrhocoricin (unlabeled, all L-amino acids, without sugar)], the Millipolarization after preincubation (millipolarization) is 110 and 84 in [11]; 62 in [12]. Also, in [13], the ATPase activity of recombinant DnaK (EnzChek assay, UV absorbance at 360 nm), 50 molar equivalents of peptide (fraction of the original value) was below 0.5.

(Values after patent publication US20030108957A1.)
